Measured values as given in patent US20150080549A1 (Chugai, published 2015).
Starred links: 1 amine or outer side, 2 acyl side, 3 side chain; linkers in the order of their positions; H or OH if unused. Positions of bridges follow the written chain, without caps; N, C: chain ends. Non-standard residues stand in square brackets, D forms with d. Hyp(Et) = (2S,4R)-4-ethoxypyrrolidine-2-carboxylic acid, CCO[C@@H]1C[C@@H](C(=O)[*:2])N([*:1])C1; γEtAbu = 4-(ethylamino)butanoic acid, CCN(CCCC(=O)[*:2])[*:1]; Phe(4-CF3) = N[C@@H](Cc1ccc(C(F)(F)F)cc1)C(=O)O; NMeAla(4-thiazolyl) = CN[C@@H](Cc1cscn1)C(=O)O; NMePhe(3-Cl) = CN[C@@H](Cc1cccc(Cl)c1)C(=O)O; Met(O2) = CS(=O)(=O)CC[C@H](N)C(=O)O; NMeF = CN[C@@H](Cc1ccccc1)C(=O)O; FlPu(urea) = not defined here; Phg = N[C@H](C(=O)O)c1ccccc1; NMeS = CN[C@@H](CO)C(=O)O; βAla = NCCC(=O)O; Sar = CNCC(=O)O

T1: biotinylated Interleukin-6 receptor (IL-6R) (human, UniProt P08887 20-344, limits assumed, biotinylated (method of BMC biotechnology, 2008, 8, 41 and Protein Science, 1999, 8, 921-929); site not stated)
T1 construct: also called human IL-6 receptor; hIL-6R
T1 sequence (looked up): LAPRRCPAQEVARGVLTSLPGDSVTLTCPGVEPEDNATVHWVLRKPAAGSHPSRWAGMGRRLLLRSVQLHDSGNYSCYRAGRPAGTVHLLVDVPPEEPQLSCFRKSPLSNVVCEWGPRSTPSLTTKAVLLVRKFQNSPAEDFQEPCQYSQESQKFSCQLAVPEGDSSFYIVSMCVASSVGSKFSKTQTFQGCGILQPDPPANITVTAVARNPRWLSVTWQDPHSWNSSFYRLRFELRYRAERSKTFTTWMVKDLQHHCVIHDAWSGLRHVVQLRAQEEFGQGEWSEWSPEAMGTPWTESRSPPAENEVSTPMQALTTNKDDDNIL

B1: Compound SP845 (peptide)
peptide: A[NMeAla(4-thiazolyl)]IPVWW[Phe(4-CF3)][Met(O2)]VDW[NMeAla(4-thiazolyl)]S-OH
modifications: lactam N-11
SMILES: CC[C@H](C)[C@@H]1NC(=O)[C@H](Cc2cscn2)N(C)C(=O)[C@H](C)NC(=O)C[C@@H](C(=O)N[C@@H](Cc2c[nH]c3ccccc23)C(=O)N(C)[C@@H](Cc2cscn2)C(=O)N[C@@H](CO)C(=O)O)NC(=O)[C@H](C(C)C)NC(=O)[C@H](CCS(C)(=O)=O)NC(=O)[C@H](Cc2ccc(C(F)(F)F)cc2)NC(=O)[C@H](Cc2c[nH]c3ccccc23)NC(=O)[C@H](Cc2c[nH]c3ccccc23)NC(=O)[C@H](C(C)C)NC(=O)[C@@H]2CCCN2C1=O
notes: Chemically synthesized, HPLC purified
B2: Compound SP848 (peptide)
peptide: ATWI[NMeF][Phg]W[βAla][Phe(4-CF3)][Phg]DVTS-OH
modifications: lactam N-11
SMILES: CC[C@H](C)[C@@H]1NC(=O)[C@H](Cc2c[nH]c3ccccc23)NC(=O)[C@H]([C@@H](C)O)NC(=O)[C@H](C)NC(=O)C[C@@H](C(=O)N[C@H](C(=O)N[C@H](C(=O)N[C@@H](CO)C(=O)O)[C@@H](C)O)C(C)C)NC(=O)[C@H](c2ccccc2)NC(=O)[C@H](Cc2ccc(C(F)(F)F)cc2)NC(=O)CCNC(=O)[C@H](Cc2c[nH]c3ccccc23)NC(=O)[C@H](c2ccccc2)NC(=O)[C@H](Cc2ccccc2)N(C)C1=O
notes: as for B1
B3: Compound SP846 (peptide)
peptide: ATIP[dY]WW[Phe(4-CF3)][Met(O2)]VDW[NMeAla(4-thiazolyl)]S-OH
modifications: lactam N-11
SMILES: CC[C@H](C)[C@@H]1NC(=O)[C@H]([C@@H](C)O)NC(=O)[C@H](C)NC(=O)C[C@@H](C(=O)N[C@@H](Cc2c[nH]c3ccccc23)C(=O)N(C)[C@@H](Cc2cscn2)C(=O)N[C@@H](CO)C(=O)O)NC(=O)[C@H](C(C)C)NC(=O)[C@H](CCS(C)(=O)=O)NC(=O)[C@H](Cc2ccc(C(F)(F)F)cc2)NC(=O)[C@H](Cc2c[nH]c3ccccc23)NC(=O)[C@H](Cc2c[nH]c3ccccc23)NC(=O)[C@@H](Cc2ccc(O)cc2)NC(=O)[C@@H]2CCCN2C1=O
notes: as for B1
B4: Compound SP844 (peptide)
peptide: A[Phe(4-CF3)]WWV[Sar]GP[Hyp(Et)]SD[NMeS][Met(O2)]S-OH
modifications: lactam N-11
SMILES: CCO[C@@H]1C[C@H]2C(=O)N[C@@H](CO)C(=O)N[C@H](C(=O)N(C)[C@@H](CO)C(=O)N[C@@H](CCS(C)(=O)=O)C(=O)N[C@@H](CO)C(=O)O)CC(=O)N[C@@H](C)C(=O)N[C@@H](Cc3ccc(C(F)(F)F)cc3)C(=O)N[C@@H](Cc3c[nH]c4ccccc34)C(=O)N[C@@H](Cc3c[nH]c4ccccc34)C(=O)N[C@@H](C(C)C)C(=O)N(C)CC(=O)NCC(=O)N3CCC[C@H]3C(=O)N2C1
notes: as for B1
B5: Compound SP842 (peptide)
peptide: [γEtAbu]T[Phg]I[NMeAla(4-thiazolyl)]WW[Phe(4-CF3)][dY][NMePhe(3-Cl)]DP[Sar]S-OH
modifications: lactam N-11
SMILES: CC[C@H](C)[C@@H]1NC(=O)[C@H](c2ccccc2)NC(=O)[C@H]([C@@H](C)O)NC(=O)CCCN(CC)C(=O)C[C@@H](C(=O)N2CCC[C@H]2C(=O)N(C)CC(=O)N[C@@H](CO)C(=O)O)NC(=O)[C@H](Cc2cccc(Cl)c2)N(C)C(=O)[C@@H](Cc2ccc(O)cc2)NC(=O)[C@H](Cc2ccc(C(F)(F)F)cc2)NC(=O)[C@H](Cc2c[nH]c3ccccc23)NC(=O)[C@H](Cc2c[nH]c3ccccc23)NC(=O)[C@H](Cc2cscn2)N(C)C1=O
notes: as for B1
B6: SEQ ID NO: PE-2 (IL-6R binder) peptide (peptide)
peptide: APII[NMeF][Met(O2)]P[NMePhe(3-Cl)][dY]VDSTSGSGSGS-{FlPu(urea)}
modifications: lactam N-11; reading uncertain
notes: Translated in ECL Translation Solution T, cyclized and desulfurized; not isolated; also called translation product of template DNA DME-2
B7: SEQ ID NO: PE-13 (IL-6R binder) peptide (peptide)
peptide: APVI[NMeF][Met(O2)]P[NMePhe(3-Cl)]V[Met(O2)]DP[Sar]SGSGSGS-{FlPu(urea)}
modifications: lactam N-11; reading uncertain
notes: Translated in ECL Translation Solution T, cyclized and desulfurized; not isolated; also called translation product of template DNA DME-13
B8: SEQ ID NO: PE-3 (IL-6R binder) peptide (peptide)
peptide: APIIW[NMePhe(3-Cl)][Met(O2)]P[NMePhe(3-Cl)][dY]DV[dY]SGSGSGS-{FlPu(urea)}
modifications: lactam N-11; reading uncertain
notes: Translated in ECL Translation Solution T, cyclized and desulfurized; not isolated; also called translation product of template DNA DME-3
B9: SEQ ID NO: PE-14 (IL-6R binder) peptide (peptide)
peptide: AII[NMeAla(4-thiazolyl)]WP[NMePhe(3-Cl)][Met(O2)][dY][βAla]DP[NMePhe(3-Cl)]SGSGSGS-{FlPu(urea)}
modifications: lactam N-11; reading uncertain
notes: Translated in ECL Translation Solution T, cyclized and desulfurized; not isolated; also called translation product of template DNA DME-14
B10: SEQ ID NO: PE-11 (TNFα binder) peptide (peptide)
peptide: ATWI[NMeF][Phg]W[βAla][Phe(4-CF3)][Phg]DVTSGSGSGS-{FlPu(urea)}
modifications: lactam N-11; reading uncertain
notes: Translated in ECL Translation Solution T, cyclized and desulfurized; not isolated; also called translation product of template DNA DME-11
B11: SEQ ID NO: PE-10 (TNFα binder) peptide (peptide)
peptide: ATIP[dY]WW[Phe(4-CF3)][Met(O2)]VDW[NMeAla(4-thiazolyl)]SGSGSGS-{FlPu(urea)}
modifications: lactam N-11; reading uncertain
notes: Translated in ECL Translation Solution T, cyclized and desulfurized; not isolated; also called translation product of template DNA DME-10
B12: SEQ ID NO: PE-8 (TNFα binder) peptide (peptide)
peptide: A[Phe(4-CF3)]WWV[Sar]GP[Hyp(Et)]SD[NMeS][Met(O2)]SGSGSGS-{FlPu(urea)}
modifications: lactam N-11; reading uncertain
notes: Translated in ECL Translation Solution T, cyclized and desulfurized; not isolated; also called translation product of template DNA DME-8
B13: SEQ ID NO: PE-9 (TNFα binder) peptide (peptide)
peptide: A[NMeAla(4-thiazolyl)]IPVWW[Phe(4-CF3)][Met(O2)]VDW[NMeAla(4-thiazolyl)]SGSGSGS-{FlPu(urea)}
modifications: lactam N-11; reading uncertain
notes: Translated in ECL Translation Solution T, cyclized and desulfurized; not isolated; also called translation product of template DNA DME-9

Target: T2, biotinylated Recombinant Human Tumor Necrosis Factor-alpha (Prospec, Catalog Number #CYT-223) (human, UniProt P01375 77-233, biotinylated with EZ-Link NHS-PEG4-Biotin (Thermo scientific 21329); sites not stated)
T2 construct: Bought protein; also called TNFα; tumor necrosis factor-α
Assay: SPR, Biacore T200, 20 C; biotinylated TNFα captured on sensor chip CAP, peptide as analyte; KD=koff/kon from curve fitting
Description: An SPR experiment for analyzing the interaction between synthetic peptides and TNFα was conducted using Biacore T200 (GE healthcare) at 20° C. Synthetic peptides were added to the immobilized protein, and the interaction was evaluated.
Surfactant P-20 and DMSO were added to the above phosphate buffered saline at final concentrations of 0.01 vol % and 5 vol %, respectively, and the resulting mixture was used as running buffer. CAP reagent was immobilized on a Biacore sensor chip, Series S sensor chip CAP (GE healthcare), according to the instructions, and biotinylated TNFα was immobilized. Each synthetic peptide was added at multiple concentrations, and sensorgrams for binding to the immobilized TNFα were provided to measure dissociation constants (KD).
The obtained sensorgrams were analyzed using T200 evaluation software (GE healthcare) or Scrubber2 (Biologic software). First, solvent correction for DMSO and double reference (correction by subtracting sensorgrams of flow cells where TNFα was not immobilized and sensorgrams in the case where the buffer was added) were carried out. Second, binding rate constants (kₒₙ) and dissociation rate constants (koff) were calculated from curve fitting to the corrected sensorgrams, and KDs were determined by the relational expression KD=koff/kₒₙ.

T2 sequence (P01375 77-233 limits assumed): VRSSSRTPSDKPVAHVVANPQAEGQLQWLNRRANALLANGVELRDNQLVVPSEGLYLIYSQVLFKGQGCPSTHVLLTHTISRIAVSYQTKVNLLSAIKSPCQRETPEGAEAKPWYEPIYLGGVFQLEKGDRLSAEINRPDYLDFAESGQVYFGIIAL

| Binder | Kd [nM] |
| --- | --- |
| B1 | 940 |
| B2 | 250 |
| B3 | 2000 |
| B4 | 20 |
| B5 | 160 |

Target: T1, biotinylated Interleukin-6 receptor …
Assay: ECL immunoassay (MSD): biotinylated target on streptavidin plate, translated FlPu(urea)-labelled cyclic peptide (Translation Solution T), anti-fluorescein and SULFO-TAG anti-mouse antibody; no-template control 177
Description: (§1) 0.5 μl of a 200 mM EDTA solution (pH 8.0, Nacalai, 14362-24) and 0.5 μl of a 100 mM TCEP solution (pH 6.6) were added to 5 μL of the translation mixture, and the mixture was incubated at 37° C. for 120 minutes to cause cyclization reaction. 11 μL of desulfurization buffer (15 mM cysteine, 36 mM TCEP) was added to the cyclization product, and the mixture was incubated at 42° C. for 1 minutes, after which 4 μL of 1 M VA-044 (Wako, CAS No. 27776-21-2) was added and the mixture was allowed to stand at 42° C. for 1 hour.
(§2) Immunoassay was carried out using the above peptide solution for ECL assay. 500 nM biotinylated target protein was added at 10 μL per well to MSD Streptavidin MULTI-ARRAY 384-well plate (Meso Scale Discovery, L25SB-1), and reaction was conducted at room temperature for 1 hour with shaking at 500 rpm to immobilize the target protein. 2% skim milk PBS was added at 50 μL per well, and blocking was carried out by allowing to stand at room temperature for 2 hours. The reaction solution was removed and the plate was washed with PBS containing 0.05% Tween 20 (PBST) three times, after which 10 μL of the peptide solution for ECL assay was added and the plate was shaken at room temperature for 50 minutes at 500 rpm. The reaction solution was removed and the plate was washed with PBST three times, after which 10 μL of IgG Fraction Monoclonal Mouse Anti-Fluorescein (Jackson ImmunoResearch, 200-002-037) diluted to 0.5 μg/mL with 2% skim milk PBS was added, and reaction was conducted at room temperature for 50 minutes with shaking at 500 rpm. The reaction solution was removed and the plate was washed with PBST three times, after which 10 μL of SULFO-TAG Anti-Mouse Antibody (Meso Scale Discovery, R32AC-5) diluted to 1 μg/mL with 2% skim milk PBS was added, and reaction was conducted at room temperature for 50 minutes with shaking at 500 rpm. The reaction solution was removed and the plate was washed with PBST three times, after which 35 μl, of 2× Read Buffer T (Meso Scale Discovery, R92TC-3) was added and measurement was carried out using SECTOR Imager 2400 (Meso Scale Discovery).

| ECL signal | Binder |
| --- | --- |
| 307000 | B6 |
| 537000 | B7 |
| 70000 | B8 |
| 45600 | B9 |

Target: T2, biotinylated Recombinant Human Tumor …
Assay: ECL immunoassay (MSD): biotinylated target on streptavidin plate, translated FlPu(urea)-labelled cyclic peptide (Translation Solution T), anti-fluorescein and SULFO-TAG anti-mouse antibody; no-template control 232
Description: as §1, §2

| Binder | ECL signal |
| --- | --- |
| B10 | 149000 |
| B11 | 50700 |
| B12 | 73300 |
| B13 | 264000 |
